Reference: IntAct's records for PubMed 20389280

B1: Kelch-like protein 20 (Homo sapiens), Q9Y2M5 (parent)
chain: MEGKPMRRCTNIRPGETGMDVTSRCTLGDPNKLPEGVPQPARMPYISDKHPRQTLEVINLLRKHRELCDVVLVVGAKKIYAHRVILSACSPYFRAMFTGELAESRQTEVVIRDIDERAMELLIDFAYTSQITVEEGNVQTLLPAACLLQLAEIQEACCEFLKRQLDPSNCLGIRAFADTHSCRELLRIADKFTQHNFQEVMESEEFMLLPANQLIDIISSDELNVRSEEQVFNAVMAWVKYSIQERRPQLPQVLQHVRLPLLSPKFLVGTVGSDPLIKSDEECRDLVDEAKNYLLLPQERPLMQGPRTRPRKPIRCGEVLFAVGGWCSGDAISSVERYDPQTNEWRMVASMSKRRCGVGVSVLDDLLYAVGGHDGSSYLNSVERYDPKTNQWSSDVAPTSTCRTSVGVAVLGGFLYAVGGQDGVSCLNIVERYDPKENKWTRVASMSTRRLGVAVAVLGGFLYAVGGSDGTSPLNTVERYNPQENRWHTIAPMGTRRKHLGCAVYQDMIYAVGGRDDTTELSSAERYNPRTNQWSPVVAMTSRRSGVGLAVVNGQLMAVGGFDGTTYLKTIEVFDPDANTWRLYGGMNYRRLGGGVGVIKMTHCESHIW

Variants of: B1
Details: with cul3_human CUL3, Q13618

Effect of a mutation on the interaction, disrupting interaction:
C146A
L150A
V109A
I111A
L148A
